Measured values from article PMC4489650, “Aurora-A-Dependent Control of TACC3 Influences the Rate of Mitotic Spindle Assembly” (PLoS Genetics, 2015).
Where a chain is given by its changes, count along the chain named. Numbers in names are those of the source. Each block holds one binder with its values, some of them ahead of it.

Experiments:
[1] = biological target: T1, TACC3-H6c (full-length human TACC3 with a C-terminal non-cleavable His-tag) (human, UniProt Q9Y6A5 1-838); test: pull-down; GST co-precipitation: 100 ug GST-AurA-DN (2 uM in the TPX2 gradient experiment, with 5 uM TACC3act-H6c and 1-50 uM His6-TPX2^1-43) immobilised on Gluthathione Sepharose 4B; 100 ug TACC3 or TPX2^1-43 added, 2 hrs at 4 C; 50 mM Tris pH 7.5, 150 mM NaCl, 5 mM MgCl2, 5 mM beta-mercaptoethanol, 0.02% TWEEN 20; SDS-PAGE and anti-His6 blot; details: both partners purified
T1 construct: TACC3, human, full length; also called full-length TACC3; TACC3-H6c WT; source: recombinant, expressed from pET-44C3, purified; not shown: His6, C-terminal, kept

[2] = biological target: T2, TACC3-H6c phospho-null mutant (SA: S34A, S552A, S558A) (human, UniProt Q9Y6A5 1-838, S34A | S552A | S558A); test: as above; details: both partners purified
T2 construct: TACC3, human, full length, three Aurora-A phosphorylation sites mutated to alanine; source: recombinant, expressed from pET-44C3, purified; not shown: His6, C-terminal, kept

[3] = biological target: T3, TACC3-H6c phospho-mimic mutant (SE: S34, S552 and S558 mutated to glutamic acid) (human, UniProt Q9Y6A5 1-838, S34 to glutamic acid | S552 to glutamic acid | S558 to glutamic acid); test: as above; details: both partners purified
T3 construct: TACC3, human, full length, three Aurora-A phosphorylation sites mutated to glutamic acid; source: recombinant, expressed from pET-44C3, purified; not shown: His6, C-terminal, kept

[4] = biological target: T4, AurA-DN (unphosphorylated Aurora-A 122–403 D274N) (UniProt O14965 122-403, D274N); test: NMR; residue pair 520/521
T4 sequence: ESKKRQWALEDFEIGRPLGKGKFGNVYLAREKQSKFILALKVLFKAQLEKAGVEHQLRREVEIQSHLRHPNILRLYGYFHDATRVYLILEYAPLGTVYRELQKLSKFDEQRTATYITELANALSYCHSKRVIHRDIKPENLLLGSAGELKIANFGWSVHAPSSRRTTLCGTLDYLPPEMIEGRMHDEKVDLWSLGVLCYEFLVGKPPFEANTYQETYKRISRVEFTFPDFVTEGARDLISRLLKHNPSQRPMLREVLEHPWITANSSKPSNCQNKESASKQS

[5] = biological target: T5, complex of AurA-DN/TPX2^1-43 (UniProt O14965 122-403; Q9ULW0 1-43, D274N); test: NMR; residue pair 519/520, with TPX2 1-43
[6] = biological target: T5, complex of AurA-DN/TPX2^1-43; test: NMR; residue pair 520/521, with TPX2 1-43
AurA-DN C290A, C393A = biological target: T6, AurA-DN C290A, C393A (UniProt O14965 122-403, D274N | C290A | C393A); test: SEC; AurA-DN C290A, C393A, TPX2^1-43 and TACC3act alone and in complex on a HiLoad Superdex 200 16/60 column; fractions analysed by SDS-PAGE; details: both partners purified
T6 construct: also called Aurora-A kinase domain (SEC); source: recombinant, purified; not further stated
T6 sequence (looked up): T4 sequence with C169A, C272A

[7] = biological target: T7, complex of AurA-DN/TPX2^1-43 (UniProt O14965 122-403; Q9ULW0 1-43, D274N); test: NMR titration; 15N-labelled TACC3act (75 uM constant in titrations) with unlabelled AurA-DN or the AurA-DN/TPX2^1-43 complex at 0-225 uM; 1H-15N HSQC; 20 mM potassium phosphate pH 7.0, 50 mM NaCl, 1 mM DTT, 0.02% sodium azide, 5 mM ADP/MgCl2; chemical shift changes fit to Eq 1; details: both partners purified
T7 construct: TPX2, first 43 amino acids; Added as a complex in the NMR titration; source: mixed from the purified recombinant proteins m8 and m12
T7 sequence (looked up) 1: T4 sequence
T7 sequence (looked up) 2: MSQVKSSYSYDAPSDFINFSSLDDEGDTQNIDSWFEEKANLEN

[8] = biological target: T8, AurA-DN (unphosphorylated Aurora-A 122–403 D274N) (UniProt O14965 122-403, D274N); test: as above; details: both partners purified
T8 construct: source: recombinant, expressed from pET30TEV, purified (Chelating Sepharose, SEC), dialysed into NMR buffer with 5 mM ADP/MgCl2
T8 sequence (looked up): T4 sequence

[9] = biological target: T9, Aurora-A 122–403 C290A, C393A (UniProt O14965 122-403, C290A | C393A, labelled with NT-647-NHS dye); test: MST; 50 nM NT-647-labelled Aurora-A 122-403 C290A, C393A; TACC3act-H6c constructs 0.2-3950 uM; 50 mM Tris pH 7.6, 150 mM NaCl, 10 mM MgCl2, 5 mM beta-mercaptoethanol, 0.05% TWEEN 20; 25 C; one-site fit (Eq 2); details: both partners purified
T9 construct: also called labelled Aurora-A; source: recombinant, expressed from pET30TEV, purified (Chelating Sepharose, SEC)
T9 sequence (looked up): T4 sequence with N153D, C169A, C272A

B3: TACC3act-H6c (human TACC3 residues 519–563 with a C-terminal His-tag) (domain or fragment, UniProt Q9Y6A5 519-563, looked up)
chain: ELKEESFRDPAEVLGTGAEVDYLEQFGTSSFKESALRKQSLYLKF
notes: also called TACC3act-H6c WT; WT TACC3act; source: recombinant, construct made by the same method as TACC3-H6c, purified; not shown: His6, C-terminal, kept
Kd [9]: 5.7 ± 0.4 µM

B4: TACC3act-H6c F525A (domain or fragment, human, UniProt Q9Y6A5 519-563, looked up)
chain: B3 chain with F7A
notes: also called F525A mutant; source: recombinant, purified; not shown: His6, C-terminal, kept
Kd [9]: 152 ± 9.3 µM

The remaining lines, values ahead:

binding result [1]: binds
binding result [2]: binds
binding result [3]: binds
B1: GST-AurA-DN (GST fused to Aurora-A catalytic domain 122–403 D274N) (domain or fragment, UniProt O14965 122-403, looked up)
chain: T4 sequence
notes: also called GST-Aurora-A; source: recombinant, expressed from pGEX-cs, purified (Gluthathione Sepharose 4B, SEC); not shown: GST, N-terminal, kept

Kd [4]: 7.5 µM
Kd [5]: 0.6 µM
Kd [6]: 1.6 µM
binding result (AurA-DN C290A, C393A): binds
Kd [7]: 1.1 ± 1.2 µM
Kd [8]: 8.2 ± 0.8 µM
B2: TACC3act (human TACC3 residues 519–563) (domain or fragment, UniProt Q9Y6A5 519-563, looked up)
chain: B3 chain
notes: also called ^15N-labelled TACC3act; source: recombinant, expressed from pETM6T1, purified (SEC); 15N- or 15N/13C-labelled for NMR
